Experimental data taken from US20180155451A1 (published 2018).

Experiments:
[1] = target: T1, FcγRIIa H (FcγRIIa, allotype with His at position 131), extracellular domain with C-terminal His tag (human, UniProt P12318 34-217); assay: SPR (Biacore T100), antibody captured on antigen-peptide chip, FcγRIIa H as analyte; response per captured antibody relative to GpH7-B3/GpL16-k0
T1 construct: extracellular domain; Soluble receptor expressed in FreeStyle293 cells and used as the analyte in Biacore; also called FcgRIIa H; FcγRIIa type H; not shown: His tag attached to the C terminus
T1 sequence (looked up): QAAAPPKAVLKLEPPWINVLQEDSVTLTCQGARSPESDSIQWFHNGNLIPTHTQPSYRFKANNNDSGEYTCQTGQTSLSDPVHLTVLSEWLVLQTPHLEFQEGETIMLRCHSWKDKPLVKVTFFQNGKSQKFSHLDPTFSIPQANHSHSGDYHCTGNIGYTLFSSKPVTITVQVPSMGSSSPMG
Experimental: (§1) Analysis of interaction between objective antibody and the FcγR was carried out using Biacore T100 (GE Healthcare). HBS-EP+ (GE Healthcare) was used as the running buffer, and the measurement temperature was set to 25° C. Chips produced by immobilizing the antigen peptide by the amine coupling method to a Series S Sencor Chip CM5 (GE Healthcare), or alternatively, chips produced by allowing preliminarily biotinylated antigen peptides to interact with and immobilize onto a Series S Sensor Chip SA (certified) (GE Healthcare) were used. Antibodies of interest were captured onto an antigen peptide-immobilized chip, and allowed to interact to each FcγR diluted with running buffer. To regenerate and repeatedly use the chip, the antibodies captured on the chip were washed off by reacting 10 mM glycine-HCl, pH 1.5.

[2] = target: T1, FcγRIIa H (FcγRIIa, allotype with His …); assay: SPR (Biacore T100), antibody captured on antigen-peptide chip, FcγRIIa H as analyte; response per captured antibody relative to GpH7-A5/GpH7-B3/GpL16-k0
Experimental: as §1

B1: GpH7-B3 variant T335_02A/GpL16-k0 (homodimerized antibody, Ho Ab) (antibody, human IgG1, kappa)
heavy: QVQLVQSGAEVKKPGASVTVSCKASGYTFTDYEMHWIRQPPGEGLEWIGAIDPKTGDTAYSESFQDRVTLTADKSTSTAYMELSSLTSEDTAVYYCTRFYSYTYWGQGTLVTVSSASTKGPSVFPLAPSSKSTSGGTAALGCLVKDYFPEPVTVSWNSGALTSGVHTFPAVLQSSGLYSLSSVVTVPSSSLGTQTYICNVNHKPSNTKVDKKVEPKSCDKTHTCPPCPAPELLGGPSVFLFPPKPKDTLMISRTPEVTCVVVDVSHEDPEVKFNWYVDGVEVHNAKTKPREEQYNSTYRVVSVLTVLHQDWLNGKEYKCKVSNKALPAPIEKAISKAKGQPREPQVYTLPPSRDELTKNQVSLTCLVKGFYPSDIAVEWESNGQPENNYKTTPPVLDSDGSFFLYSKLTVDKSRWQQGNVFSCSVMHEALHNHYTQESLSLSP
light: DIVMTQSPLSLPVTPGEPASISCQASESLVHSNRNTYLHWYLQKPGQSPQLLIYKVSNRFSGVPDRFSGSGSGTDFTLKISRVEAEDVGVYYCSQNTHVPPTFGQGTKVEIERTVAAPSVFIFPPSDEQLKSGTASVVCLLNNFYPREAKVQWKVDNALQSGNSQESVTEQDSKDSTYSLSSTLTLSKADYEKHKVYACEVTHQGLSSPVTKSFNRGEC
notes: Anti-glypican-3 IgG1 (G1d with K439E = GpH7-B3); the substitution stands in both H chains; also called Ho Ab T335A
Ho/Con_2aH [1]: 103 relative binding activity (control homodimerized antibody GpH7-B3/GpL16-k0 = 100)

B2: GpH7-A5/GpH7-B3 variant T335_02A/GpL16-k0 (heterodimerized antibody, He Ab) (antibody, human IgG1, kappa)
heavy 1: not shown
heavy 2: not shown
light: B1 light
notes: Anti-glypican-3 IgG1; the substitution stands only in the GpH7-B3 chain, the other H chain is GpH7-A5 (D356K/H435R); Position is EU numbering; also called He Ab T335A
He/Con_2aH [2]: 101 relative binding activity (control heterodimerized antibody GpH7-A5/GpH7-B3/GpL16-k0 = 100)

B3: GpH7-A5/GpH7-B3 variant T335_06M/GpL16-k0 (heterodimerized antibody, He Ab) (antibody, human IgG1, kappa)
heavy 1: not shown
heavy 2: not shown
light: B1 light
notes: Anti-glypican-3 IgG1; substitution only in the GpH7-B3 chain; Position is EU numbering; also called He Ab T335M
He/Con_2aH [2]: 103 relative binding activity (control heterodimerized antibody GpH7-A5/GpH7-B3/GpL16-k0 = 100)

B4: GpH7-B3 variant Y300_06M/GpL16-k0 (homodimerized antibody, Ho Ab) (antibody, human IgG1, kappa)
heavy: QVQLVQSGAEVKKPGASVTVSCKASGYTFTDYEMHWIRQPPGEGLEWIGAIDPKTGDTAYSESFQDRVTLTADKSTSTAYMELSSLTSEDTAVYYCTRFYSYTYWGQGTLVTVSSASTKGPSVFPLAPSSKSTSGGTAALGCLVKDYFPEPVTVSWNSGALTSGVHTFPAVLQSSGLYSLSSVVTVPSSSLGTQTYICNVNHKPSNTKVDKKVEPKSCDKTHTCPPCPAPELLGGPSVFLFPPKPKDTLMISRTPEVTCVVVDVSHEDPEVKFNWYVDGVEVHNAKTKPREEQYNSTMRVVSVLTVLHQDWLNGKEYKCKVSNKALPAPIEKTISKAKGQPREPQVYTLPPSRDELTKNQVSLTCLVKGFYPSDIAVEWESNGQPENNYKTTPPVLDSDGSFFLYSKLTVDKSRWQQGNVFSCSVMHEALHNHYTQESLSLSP
light: B1 light
notes: Anti-glypican-3 IgG1 (GpH7-B3 background); substitution in both H chains; Position is EU numbering; also called Ho Ab Y300M
Ho/Con_2aH [1]: 106 relative binding activity (control homodimerized antibody GpH7-B3/GpL16-k0 = 100)

B5: GpH7-B3 variant Y300_08L/GpL16-k0 (homodimerized antibody, Ho Ab) (antibody, human IgG1, kappa)
heavy: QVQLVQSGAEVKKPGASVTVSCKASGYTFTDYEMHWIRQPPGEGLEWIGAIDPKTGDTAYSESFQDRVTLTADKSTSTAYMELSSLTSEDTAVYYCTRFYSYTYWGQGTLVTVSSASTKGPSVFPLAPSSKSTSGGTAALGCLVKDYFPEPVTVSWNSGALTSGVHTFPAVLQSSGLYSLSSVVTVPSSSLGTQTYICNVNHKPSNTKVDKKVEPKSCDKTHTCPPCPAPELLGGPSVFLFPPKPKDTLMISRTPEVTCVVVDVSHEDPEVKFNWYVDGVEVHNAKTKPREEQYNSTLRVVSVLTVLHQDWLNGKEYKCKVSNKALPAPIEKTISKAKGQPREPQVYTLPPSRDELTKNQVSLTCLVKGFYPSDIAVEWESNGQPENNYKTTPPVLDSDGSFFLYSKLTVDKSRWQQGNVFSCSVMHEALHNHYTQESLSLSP
light: B1 light
notes: Anti-glypican-3 IgG1 (GpH7-B3 background); substitution in both H chains; Position is EU numbering; also called Ho Ab Y300L
Ho/Con_2aH [1]: 115 relative binding activity (control homodimerized antibody GpH7-B3/GpL16-k0 = 100)

B6: GpH7-B3 variant T335_04F/GpL16-k0 (homodimerized antibody, Ho Ab) (antibody, human IgG1, kappa)
heavy: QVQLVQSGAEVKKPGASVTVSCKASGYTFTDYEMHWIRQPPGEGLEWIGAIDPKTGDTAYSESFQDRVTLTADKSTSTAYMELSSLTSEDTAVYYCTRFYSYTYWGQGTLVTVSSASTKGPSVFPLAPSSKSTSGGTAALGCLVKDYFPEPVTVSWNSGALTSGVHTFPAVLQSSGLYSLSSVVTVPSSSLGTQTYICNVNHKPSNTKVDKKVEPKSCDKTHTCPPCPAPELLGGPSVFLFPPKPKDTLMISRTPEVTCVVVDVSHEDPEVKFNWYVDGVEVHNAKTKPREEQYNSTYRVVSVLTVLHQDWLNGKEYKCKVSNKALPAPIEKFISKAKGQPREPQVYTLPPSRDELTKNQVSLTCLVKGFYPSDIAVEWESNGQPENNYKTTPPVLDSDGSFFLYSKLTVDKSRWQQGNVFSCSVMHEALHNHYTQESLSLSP
light: B1 light
notes: Anti-glypican-3 IgG1 (GpH7-B3 background); substitution in both H chains; Position is EU numbering; also called Ho Ab T335F
Ho/Con_2aH [1]: 104 relative binding activity (control homodimerized antibody GpH7-B3/GpL16-k0 = 100)

B7: GpH7-B3 variant T335_06M/GpL16-k0 (homodimerized antibody, Ho Ab) (antibody, human IgG1, kappa)
heavy: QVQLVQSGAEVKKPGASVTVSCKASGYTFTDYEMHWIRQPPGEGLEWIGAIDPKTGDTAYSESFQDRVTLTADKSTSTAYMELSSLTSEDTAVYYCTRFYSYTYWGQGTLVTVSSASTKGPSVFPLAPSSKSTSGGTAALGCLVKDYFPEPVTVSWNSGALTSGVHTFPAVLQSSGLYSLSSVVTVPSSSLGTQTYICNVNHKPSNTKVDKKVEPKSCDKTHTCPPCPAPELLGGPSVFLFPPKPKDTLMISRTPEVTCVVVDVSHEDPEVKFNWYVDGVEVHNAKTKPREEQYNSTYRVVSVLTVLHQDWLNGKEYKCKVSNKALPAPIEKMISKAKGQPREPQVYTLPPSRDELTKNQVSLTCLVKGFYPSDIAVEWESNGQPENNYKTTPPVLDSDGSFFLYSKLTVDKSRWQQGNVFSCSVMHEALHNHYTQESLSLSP
light: B1 light
notes: Anti-glypican-3 IgG1 (GpH7-B3 background); substitution in both H chains; Position is EU numbering; also called Ho Ab T335M
Ho/Con_2aH [1]: 106 relative binding activity (control homodimerized antibody GpH7-B3/GpL16-k0 = 100)

B8: GpH7-B3 variant Y300_07I/GpL16-k0 (homodimerized antibody, Ho Ab) (antibody, human IgG1, kappa)
heavy: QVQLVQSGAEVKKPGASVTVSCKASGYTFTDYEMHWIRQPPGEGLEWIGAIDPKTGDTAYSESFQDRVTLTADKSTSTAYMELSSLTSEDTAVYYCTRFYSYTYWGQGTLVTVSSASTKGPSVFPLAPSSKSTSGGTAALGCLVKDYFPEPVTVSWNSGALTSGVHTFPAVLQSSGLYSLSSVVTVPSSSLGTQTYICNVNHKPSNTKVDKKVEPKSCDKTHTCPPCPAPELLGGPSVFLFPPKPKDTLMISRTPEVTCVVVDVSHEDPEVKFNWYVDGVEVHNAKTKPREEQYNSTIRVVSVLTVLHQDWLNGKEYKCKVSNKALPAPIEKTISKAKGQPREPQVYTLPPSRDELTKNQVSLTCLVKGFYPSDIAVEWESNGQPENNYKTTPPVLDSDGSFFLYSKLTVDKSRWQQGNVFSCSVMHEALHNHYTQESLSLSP
light: B1 light
notes: Anti-glypican-3 IgG1 (GpH7-B3 background); substitution in both H chains; Position is EU numbering; also called Ho Ab Y300I
Ho/Con_2aH [1]: 122 relative binding activity (control homodimerized antibody GpH7-B3/GpL16-k0 = 100)

B9: GpH7-A5/GpH7-B3 variant T335_09D/GpL16-k0 (heterodimerized antibody, He Ab) (antibody, human IgG1, kappa)
heavy 1: not shown
heavy 2: not shown
light: B1 light
notes: Anti-glypican-3 IgG1; substitution only in the GpH7-B3 chain; Position is EU numbering; also called He Ab T335D
He/Con_2aH [2]: 107 relative binding activity (control heterodimerized antibody GpH7-A5/GpH7-B3/GpL16-k0 = 100)

B10: GpH7-A5/GpH7-B3 variant T335_08L/GpL16-k0 (heterodimerized antibody, He Ab) (antibody, human IgG1, kappa)
heavy 1: not shown
heavy 2: not shown
light: B1 light
notes: Anti-glypican-3 IgG1; substitution only in the GpH7-B3 chain; Position is EU numbering; also called He Ab T335L
He/Con_2aH [2]: 106 relative binding activity (control heterodimerized antibody GpH7-A5/GpH7-B3/GpL16-k0 = 100)

B11: GpH7-B3 variant T335_08L/GpL16-k0 (homodimerized antibody, Ho Ab) (antibody, human IgG1, kappa)
heavy: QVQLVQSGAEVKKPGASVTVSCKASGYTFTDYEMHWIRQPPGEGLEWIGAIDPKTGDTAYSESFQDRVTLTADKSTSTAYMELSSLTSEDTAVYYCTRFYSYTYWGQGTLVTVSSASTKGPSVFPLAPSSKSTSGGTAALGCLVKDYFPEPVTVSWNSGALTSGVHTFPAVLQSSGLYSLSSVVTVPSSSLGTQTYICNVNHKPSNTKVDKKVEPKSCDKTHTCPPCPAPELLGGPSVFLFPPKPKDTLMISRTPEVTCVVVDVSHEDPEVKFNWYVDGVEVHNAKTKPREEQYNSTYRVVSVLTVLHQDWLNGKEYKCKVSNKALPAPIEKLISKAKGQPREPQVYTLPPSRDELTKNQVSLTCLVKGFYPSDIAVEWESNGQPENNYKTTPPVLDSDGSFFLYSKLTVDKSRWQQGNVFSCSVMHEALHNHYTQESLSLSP
light: B1 light
notes: Anti-glypican-3 IgG1 (GpH7-B3 background); substitution in both H chains; Position is EU numbering; also called Ho Ab T335L
Ho/Con_2aH [1]: 106 relative binding activity (control homodimerized antibody GpH7-B3/GpL16-k0 = 100)

B12: GpH7-A5/GpH7-B3 variant Y300_07I/GpL16-k0 (heterodimerized antibody, He Ab) (antibody, human IgG1, kappa)
heavy 1: not shown
heavy 2: not shown
light: B1 light
notes: Anti-glypican-3 IgG1; substitution only in the GpH7-B3 chain; Position is EU numbering; also called He Ab Y300I
He/Con_2aH [2]: 108 relative binding activity (control heterodimerized antibody GpH7-A5/GpH7-B3/GpL16-k0 = 100)

B13: GpH7-A5/GpH7-B3 variant T335_04F/GpL16-k0 (heterodimerized antibody, He Ab) (antibody, human IgG1, kappa)
heavy 1: not shown
heavy 2: not shown
light: B1 light
notes: Anti-glypican-3 IgG1; substitution only in the GpH7-B3 chain; Position is EU numbering; also called He Ab T335F
He/Con_2aH [2]: 103 relative binding activity (control heterodimerized antibody GpH7-A5/GpH7-B3/GpL16-k0 = 100)

B14: GpH7-A5/GpH7-B3 variant Y300_08L/GpL16-k0 (heterodimerized antibody, He Ab) (antibody, human IgG1, kappa)
heavy 1: not shown
heavy 2: not shown
light: B1 light
notes: Anti-glypican-3 IgG1; substitution only in the GpH7-B3 chain; Position is EU numbering; also called He Ab Y300L
He/Con_2aH [2]: 108 relative binding activity (control heterodimerized antibody GpH7-A5/GpH7-B3/GpL16-k0 = 100)

B15: GpH7-A5/GpH7-B3 variant T335_05P/GpL16-k0 (heterodimerized antibody, He Ab) (antibody, human IgG1, kappa)
heavy 1: not shown
heavy 2: not shown
light: B1 light
notes: Anti-glypican-3 IgG1; substitution only in the GpH7-B3 chain; Position is EU numbering; also called He Ab T335P
He/Con_2aH [2]: 108 relative binding activity (control heterodimerized antibody GpH7-A5/GpH7-B3/GpL16-k0 = 100)

B16: GpH7-A5/GpH7-B3 variant Y300_06M/GpL16-k0 (heterodimerized antibody, He Ab) (antibody, human IgG1, kappa)
heavy 1: not shown
heavy 2: not shown
light: B1 light
notes: Anti-glypican-3 IgG1; substitution only in the GpH7-B3 chain; Position is EU numbering; also called He Ab Y300M
He/Con_2aH [2]: 105 relative binding activity (control heterodimerized antibody GpH7-A5/GpH7-B3/GpL16-k0 = 100)

B17: GpH7-B3 variant T335_09D/GpL16-k0 (homodimerized antibody, Ho Ab) (antibody, human IgG1, kappa)
heavy: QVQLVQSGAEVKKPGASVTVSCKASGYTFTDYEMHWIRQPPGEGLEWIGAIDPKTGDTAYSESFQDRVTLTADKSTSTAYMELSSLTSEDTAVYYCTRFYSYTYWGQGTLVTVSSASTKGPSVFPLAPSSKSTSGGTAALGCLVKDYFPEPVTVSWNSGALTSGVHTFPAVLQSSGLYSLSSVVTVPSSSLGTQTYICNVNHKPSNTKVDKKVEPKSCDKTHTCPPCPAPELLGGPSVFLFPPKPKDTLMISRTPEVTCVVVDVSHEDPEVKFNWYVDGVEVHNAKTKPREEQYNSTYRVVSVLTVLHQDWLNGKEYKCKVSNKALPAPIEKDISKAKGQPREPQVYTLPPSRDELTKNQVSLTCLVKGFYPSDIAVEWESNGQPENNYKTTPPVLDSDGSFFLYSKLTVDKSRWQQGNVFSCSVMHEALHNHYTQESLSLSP
light: B1 light
notes: Anti-glypican-3 IgG1 (GpH7-B3 background); substitution in both H chains; Position is EU numbering; also called Ho Ab T335D
Ho/Con_2aH [1]: 110 relative binding activity (control homodimerized antibody GpH7-B3/GpL16-k0 = 100)

B18: GpH7-B3 variant T335_05P/GpL16-k0 (homodimerized antibody, Ho Ab) (antibody, human IgG1, kappa)
heavy: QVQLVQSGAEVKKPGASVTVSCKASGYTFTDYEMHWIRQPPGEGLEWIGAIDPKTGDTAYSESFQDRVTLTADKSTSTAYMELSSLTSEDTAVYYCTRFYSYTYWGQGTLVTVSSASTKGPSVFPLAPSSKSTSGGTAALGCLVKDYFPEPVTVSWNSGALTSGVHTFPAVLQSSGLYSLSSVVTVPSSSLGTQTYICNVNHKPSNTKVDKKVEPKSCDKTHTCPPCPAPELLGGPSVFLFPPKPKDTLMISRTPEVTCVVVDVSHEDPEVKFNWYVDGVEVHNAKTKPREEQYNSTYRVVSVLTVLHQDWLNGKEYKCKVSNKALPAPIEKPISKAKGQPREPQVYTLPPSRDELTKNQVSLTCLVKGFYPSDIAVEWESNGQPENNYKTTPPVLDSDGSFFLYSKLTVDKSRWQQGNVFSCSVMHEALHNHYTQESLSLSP
light: B1 light
notes: Anti-glypican-3 IgG1 (GpH7-B3 background); substitution in both H chains; Position is EU numbering; also called Ho Ab T335P
Ho/Con_2aH [1]: 115 relative binding activity (control homodimerized antibody GpH7-B3/GpL16-k0 = 100)
